Source: the DeepSol protein solubility set

Assay: soluble on expression in E. coli; label from the status in PepcDB or PDB records

**Q.** For “MGSDKIHHHHHHMTLLRGDDFFTSRAVTVAVEPRTPQTAFPEHYHDFWEIVLVEQGAGVHVFNDQPYALCSGSVFFVRDNDRHLFEDVEGLCLTNMLYRSPRGFRFLSDIAAFLPYGPNGEWQGQWQVNAAGMQQLKQSLNSLAGLAQSDAPEAIAASESLFLQILVQLRQHCFQTEGNGSERQGVQALLGWLQNNYSEEVNWGGLADQFSLPLRTLHRQLKQHTGMTPQRYLNRLRLLEARRRLQQSDDSITTIAHACGFSDSNHFSTQFRKAFSQAPKSLRHQAFSREE”, which “soluble on expression in E. coli” value is on record?
**A.** not soluble

**Q.** For “LAWKRMEEHDWTCDCIRCREAGHSDDVAENIELDVMTYEACGGMEHFISFEDFENDVLVGFCRLRFPNDPVRRELQDAAIVRELHVYGNAVGVGQEGDDEDHQHKGYGKKLLEKAEVLARDAGFPKLAVISGIGVRQYYREKLGYKQDGPYVSKRL”, which “soluble on expression in E. coli” value is on record?
**A.** not soluble

**Q.** Which “soluble on expression in E. coli” value does the source give for “MAAAREPELPQEAPATEPAPPPACRFFLEGRCRFGARCRQPHPGAPAPPGREAQPEAGAKKPPLRTAADVIQRIRWDPRLDPADFSVGYVDRFLGVREEPFSAFCWDQPLAALGPGVLAVPQHRVRFFRFHGRLVWDRASRTDLVFGSGSAAGRGPTILDAPNTEGAHGAEGAEWTLAGTGQEAQAAPKRGSTRPLCTGHQEPGVEEPGELEAAQERALGTAADLGTLAPRGRLAGVTEEALKPTAATRTTLLGGKEAQALGVPGGSAETTEAEWGPAAWPEDKRARLSVAAPCQPRPTHFVALMVTEPGLQAEVTKAQEYLVHVAPHCANFLVPSQNLHLTLALLRLAGAGEEAAAIGALRRALLAPGLNAPPRLSFRKLVLLGPHVLCAPPSPTLESMAQVLSQRLEAEGLSTLQSPGQLHPHLTVAKVPHGSQVHLPKLEFTLSQEVGCQPLQTLWLCRIGRTGGPFQPLAEIRLE” here?
**A.** soluble

**Q.** Which “soluble on expression in E. coli” value does the source give for “MGSDKIHHHHHHMSRTQEKHNRSVSKDVLVVGGGTSGFVAAIAAARNGASVLLLEQRDHLGGTHSGGMVMMIRSMRHMKAPANMEQKKIMMTGYESSFDDEQVVRSIVQEYINRMLEIGSAWGRKDEATARQMFDPEIAKWVIQDMVAEAGVEVWLNTQATDVIMEGNALKGVVIESLRDRVEVHAGITIDTTGDGDIAAAAGAAFEFGSPEDGKCQPASLYFAVGGVQLDKTIAYMRDHANEFGEEYVKTMVGLKEQNKPITMFPFKEKIREALKNGDYPIPYGVETVNPDTLSYIVRPMFRNGKFRYDVTYHNMDMAYNFDATDRVELTKATLAMRDLANKMAKFYRKYVPGYEDSYLSYTAQSVGIRDSRRIVCDYTLTREDVLAGQVFPDGIGRYGSLMDVHDKSGKKSLSLVEVGGHGWFHVPFRSLLPKGIENLMVAGRCISADYDAQGSVRSQAASMVTGQATGTAAALAVQQKRKLRELDVSALQEVLKAQNQVI” here?
**A.** not soluble

**Q.** Which “soluble on expression in E. coli” value does the source give for “MGSDKIHHHHHHMKAVVIGGGVFGSLIARELTKYDLEVTLIEKNLDVGWGVTKANSAVVHAGYDDPPESVRAQFCASGNAMYEDLSKELDFDFKRIGSFVVAFNDEELKELERLLKQGEENGVPGLTILERDEVLSMEPNLNPEVKYALYAPTAGITEPWMVAIAAVENAVQNGLKLVLGESVVGFEKVNGRVRKVHTSRGEYEADIVINCAGLHADEIAKLAGAEYVPLHPRKGEYILLDKKLQGLVKRVIFPTPTKISKGILVLPTVDGGILLGPTAEDLPEEMKDRPITTREGLEKVREFTRRLVPSLDFSLVVKTFSGLRPESPQKDFFIKVSETVKNFVNVMATRSPGLTAAPAVAKYVVEELIQEKMRIPLEKKKDFKPERKRIVHYSELPLEEWRREIERDPRAGRLVCFCNEVTEKEIVEAIRRGARTLNGVKFRTRAMFGRCQGGFCMARILKILERELGVDMSEIKMKSENSWVVNGKVRE” here?
**A.** not soluble

**Q.** For “MGSDKIHHHHHHMISKLAEIVGEEWVISGDEAKLYSYPAFIPLKIEPPVVVLPGSEEEVISLVNFLNENNIKYIVRGSGTSLSGATTPTQGEVVISLTRLNRIYSLDNFEITVGPGLANFLINKTLGNSNLFYAPDPSSYVVSSIGGNISHDSGGMHTPKYGTTFDSIIRLKVLLSNGHVEEIGSSNFFDPTSIFVGAEGTLGVILRATLRLFPKPEVSKTILASFNSIDDAGKAVVSVYKAGVTPAAMEFLDKNSIIAIENTQYKANYPMAEAILLIELDGYSVNVEEEEVRVVSAIRNNNGEVFIPKDEEEKNRWWWGRKGAFPSFAYYSPAYLTLDANVPRSTLPTMLRFTYEISKKYGLPVANSFHAGDGTLHPLIGFDPKNADETIKAIKAAEEITKLAIKVGGVPSGEHGIGIEKIKFMKLYYSEDDLTLMRRLKATFDPKRLLNPCKLIPPAKNEICNTVNRIHTYLLEGDI”, which “soluble on expression in E. coli” value is on record?
**A.** not soluble

**Q.** With “MSLIAHSNEIARPIFKSQDQLFTLYQGDCNEVLPQFENQFDLIFADPPYFLSNDGLSIQSGKIVSVNKGDWDKEDGINGIDEFNYQWINNAKKALKDTGSLLISGTYHNIFSLGCVLQKLDFKILNLITWQKTNPPPNFSCRYLTHSAEQIIWARKSRKHKHVFNYEVLKKINNDKQMRDVWSFPAIAPWEKVNGKHPTQKPLALLVRLLLMASDENSLIGDPFSGSSTTGIAANLLKREFIGIEKESEFIKISMDRKIELDARYKEIRSKIKDLNHQEGHHHHHH” as the sequence, how does the “soluble on expression in E. coli” value read?
**A.** not soluble

**Q.** With “MNTNERIVPLLPLRGVLVYPTMVLHLDVGRDKSIQALEQAAMDENIIFLAMQKEMNIDDPKEDDIYSVGTVAKVKQMLKLPNGTLRVLVEGLHRAEVVEFIEEENVVQVSIKTVTEEVEADLEEKALMRTLLEHFEQYIKVSKKVSNETFATVADVEEPGRLVDLIASHLPIKTKQKQEILEIISVKERLHTLISIIQDEQELLSLEKKIGQKVKRSMERTQKEYFLREQMKAIQTELGDKEGKGGEVEELREKIEQSGMPEETMKAALKELDRYEKLPASSAESGVIRNYMDWLLALPWTDATEDMIDLAHSEEILNKDHYGLEKVKERVLEYLAVQKLTNSLKGPILCLVGPPGVGKTSLARSIATSLNRNFVRVSLGGVRDESEIRGHRRTYVGAMPGRIIQGMKKAKSVNPVFLLDEIDKMSNDFRGDPSAALLEVLDPEQNHNFSDHYIEEPYDLSKVMFVATANTLSSIPGPLLDRMEIISIAGYTELEKVHIAREHLLPKQLQEHGLRKGNLQVRDEALLEIIRYYTREAGVRTLERQIAKVCRKVAKIIVTAERKRIVVTEKNVVDLLGKHIFRYGQAEKTDQVGMATGLAYTAAGGDTLAIEVSVAPGKGKLILTGKLGDVMKESAQAAFSYIRSRAEELQIDPNFHEKNDIHIHVPEGAVPKDGPSAGITMATALISALTGIPVSKEVGMTGEITLRGRVLPIGGLKEKTLSAHRAGLTKIILPAENEKDLDDIPESVKENLTFVLASHLDEVLEHALVGVKQ” as the sequence, how does the “soluble on expression in E. coli” value read?
**A.** not soluble

**Q.** With “MLLSGERIDQLYADDIQIIQSKEVFSFSIDAVLLANFPQLPKKGKIVDLCAGNGAVGLFVSRKTAAKIDQIELQPRLADMGQRSILLNKLEKQVTMYERDLKQATEVIKKDSVDLVLCNPPYFKERPTSQKNPNPHLAIARHEIHTSLQEVVTVSADLLKTNGRLAMVHRPDRFLDILHAMENANIAPKKARFVYPKPGKEANVLLIEGIKQGKKDGFRVLPPLFTYNEKNEYEAEMKAMLYGE” as the sequence, how does the “soluble on expression in E. coli” value read?
**A.** not soluble

**Q.** Which “soluble on expression in E. coli” value does the source give for “MRAILILLDGLGDRASEILNNKTPLQFAKTPNLDRLAENGMCGLMTTYKEGIPLGTEVAHFLLWGYSLEEFPGRGVIEALGEDIEIEKNAIYLRASLGFVKKDEKGFLVIDRRTKDISREEIEKLVDSLPTCVDGYKFELFYSFDVHFILKIKERNGWISDKISDSDPFYKNRYVMKVKAIRELCKSEVEYSKAKDTARALNKYLLNVYKILQNHKINRKRRKLEKMPANFLLTKWASRYKRVESFKEKWGMNAVILAESSLFKGLAKFLGMDFIKIESFEEGIDLIPELDYDFIHLHTKETDEAAHTKNPLNKVKVIEKIDKLIGNLKLREDDLLIITADHSTPSVGNLIHSGESVPILFYGKNVRVDNVKEFNEISCSNGHLRIRGEELMHLILNYTDRALLYGLRSGDRLRYYIPKDDEIDLLEG” here?
**A.** not soluble

**Q.** For “MSLGPTSKAISRNVRSVKRPRRAPRPVVSTQAMNKLSNVTLSAEQEKLRERVLSFMRSNLSQYKSDWKHPAMFVIQGDAGTGKSVILNSLFNEIQKLSQFSPSSEDILHGTHNYLVVNHPEMLKLYIRISDSFKYISKSSLERPTSLINNLQKRKVMADVVIVDEAHLLATSKDAFKRFYGENHLKDLMSLCKVLVLVYDDKQALRMGSYWDEGSNNGATLKDFYNEIPPKSRDWYTLKQQFRVAAPQNVLNWIDQISVAGKIPPIESVLSKGNADCADDKIKNFDFKIWDDCGAMYEAIKEKDRQYGQCRMLSTYDFPYRLDGKDYYVECGDNFKVRWDRYTPREVTPWSERCDTIDEVGSVYTIQGFDLNYAGVILGRSIGYDAANDCIKLRPELYDDRAGFTKKKNIHNAEDVKQKIIMNSINVLLTRGVRGLYVYAYDPELRERLLRPSKEGHHHHHH”, which “soluble on expression in E. coli” value is on record?
**A.** soluble

**Q.** Which “soluble on expression in E. coli” value does the source give for “MGSDKIHHHHHHMSLDLSTPLQLIGRSVEFQRVVEVLAQDGDLLITGVPGSGRRTLVRWGVTEVRAIALDIDCIRATDGERFLQLLTEAINQNWQAEKIQSWLDKNAKEFFTFHPETKLKLLRSLSQKQIWQAFELLLELPQIMAVDLNKRLVLILQSFPHIRSWDRNGLWEISFRRKIKEHTHVSYVLIATIAETGNYSDENNYPLETIQLPPLNRDVLAVWAREILHGSKLTFDSRSKALQLFLDAVQGHIGDAMAIIRRLQTLCVPDSLVTENDVQQAIEGLLKDLSMTYESLLMLLPANQVHLLECLALDPTEKPQSKDYIQKHGLSRGGSLQGALTGLHHKGLIYGAEQGYLLAMPLLALWLRQRLS” here?
**A.** not soluble

**Q.** For “MGSDKIHHHHHHDPVSDITDLNYWKTPEQFDSFVFGLHSRFRSHSWNMFLLGEARSDVFGGIPFGGEATQGMERFPYNTLNAENPGISGFGDLYQNINQMNLFISRTLHTDVLTESARNYYLGQVYGLRAYYMYQLYRSWGDVVFTEEPSLGFEVGKLAKAATPAAEIFEQVKKDIESSLSYFGSDYTIKEKKSLWSKAATLMLKADVYLWSAHRDGGEGDARTAKNALVDIQNNISRSNLDLMDTYQGVFAYDNKGNKEIIFTIHNELFEYNLWNGNNDLFPQADYLGKFYNADGTLINTSVENNFGIMRLMVKLENFKKFLPGDTRRDVTLKDVYNKVENGKLELVGVYPHKYWGVMNGSTRVRCDDYPIYRYSDLLLMLAEAKVLLGEDPATEINRVRRRAFGDAYDASTVGFPNQEVDKRPADAVLQERLFEFMLEGKRWYDLRRFGDSYVLDYTPAEPARLLWPINQGALTNNPLLKQTVGY”, which “soluble on expression in E. coli” value is on record?
**A.** not soluble

**Q.** For “MPGNSGNDRSVVVGRVSGAFGVRGWVKAVSFTDPPVNLVGYRPWTLRRGDAERRADVLEGREHGNAVIVRLQGVDTREQAEALKGFEVTVRRSQLPPPAPGEYYRVDLVGLKVVNLGETVLGEVVDVMETGANDVLVVQGDRERLLPFVQGVFVKSVNLEESRIVVDWDPGFLEHHHHHH”, which “soluble on expression in E. coli” value is on record?
**A.** not soluble

**Q.** For “AIAETGGGAPLTKSSEAVEGDFVEDRLRGNEAFRRGNYEAAASYYSEALEKIRLAKTELPTQDRYPWSLEEVLIRCNRALVFLRLASAAALPNVGSNRFEEDACTAEHESEEATPCSLWQRAAEDASVALDLITDFEDEGESERVTELRVKALYRRMVANKGQNNFADAAKDAEALAKIRPEYRSEAELLAQRAAAESERAKQEALQKLKEVGNSFLSLFGVSIDNFQTKRNPDGTYSVSYCPKS”, which “soluble on expression in E. coli” value is on record?
**A.** soluble

**Q.** With “MEVKLWNDKREREMYENFAELFAIIKATEKLEKAYIRDLINPSEYESECQKLIVHFKTLSATLKDTVPNIERFADTYKMDCPAALYRLVTSGLPATVEHRATVAASTSNSASIVAECVQNFITSMDSLKLNMVAVDQVYPLLSDLSASLNKLSILPPDFEGKTKMKEWLSRLSKMGAADELTEQQSRQLHFDLESSYNSFMAALPKAGN” as the sequence, how does the “soluble on expression in E. coli” value read?
**A.** soluble

**Q.** Which “soluble on expression in E. coli” value does the source give for “MQQQILERIEDCYQQAEAYFKRAFPRPTTQFTLRGRSAGTAHLQQNRLRFNPVLLRENSEAFLAEVVPHEISHLLCFQIFGKTKPHGREWQSIMLKLFKISPNTTHNFDTQSVKGKDVEYRCACGPIRLGIRRHNKVLRGETRYLCKRCHTHLTLALEHHHHHH” here?
**A.** not soluble
